Assay results from patent US20160193299A1, “MODIFIED NUCLEOSIDE, NUCLEOTIDE, AND NUCLEIC ACID COMPOSITIONS” (Moderna Therapeutics, Inc., priority 2011, published 2016).

How the values were obtained:
[1] = test system: G-CSF; assay: Example 17 LNP in vivo study IV/IM/SC, serum G-CSF ELISA; details: rats, 0.05 mg/kg
Procedure: Formulations, listed in Table 31, were characterized by particle size, zeta potential, and encapsulation.
LNP formulations, shown in Table 31 (above), were administered to rats (n=5) intravenously (IV), intramuscularly (IM) or subcutaneously (SC) at a single modified mRNA dose of 0.05 mg/kg. A control group of rats (n=4) was untreated. […] The rats administered EPO modified mRNA intravenously were also bled at 7 days.

[2] = test system: alanine transaminase (ALT); assay: Example 22 non-human primate study, serum chemistry alanine transaminase (ALT); assay type: in vivo, cynomolgus monkey
Procedure: (§1) LNP formulations, shown in Table 31 (above), were administered to non-human primates (NHP) (cynomolgus monkey) (n=2) as intravenous injection (IV). The NHP were administered a single modified mRNA IV dose of 0.5 mg/kg, 0.05 mg/kg or 0.005 mg/kg of G-CSF or EPO in a dose volume of 0.5 mL/kg. The NHPs were bled before dosing with the modified mRNA LNP formulations to determine protein expression in the serum and a baseline complete blood count. After administration with the G-CSF modified mRNA formulation the NHP were bled at 8, 24, 48 and 72 hours to determined protein expression. After administration with the EPO modified mRNA formulation the NHP were bled at 8, 24, 48, 72 hours and 7 days to determined protein expression.

[3] = test system: G-CSF; assay: Example 16 lipid nanoparticle in vivo study, serum G-CSF ELISA; parameters: species or system mice; details: 100 ug
[4] = test system: reticulocytes; assay: Example 22 non-human primate study, reticulocyte count; assay type: in vivo, cynomolgus monkey
Procedure: as §1
Samples collected from the NHPs after they were administered with G-CSF or EPO modified mRNA formulations were analyzed by ELISA to determine protein expression. Neutrophil and reticulocyte count was also determined pre-dose, 24 hours, 3 days, 7 days, 14 days and 18 days after administration of the modified G-CSF or EPO formulation.

[5] = test system: neutrophil count; assay: Example 41 intravenous administration of lipoplexed G-CSF mRNA, neutrophil count; assay type: in vivo; details: mice IV, 10% lipoplex, 50 ug at days 0, 2, 4; day 5
Procedure: Neutrophils were measured at days 1, 5 and 8. Controls included non-specific mammalian RNA or the formulation buffer alone (F.Buffer). The mice were bled at days 1, 5 and 8 to determine the effect of mRNA-encoded human G-CSF to increase neutrophil count. The dosing regimen is shown in Table 64 as are the resulting neutrophil counts (thousands/uL; K/uL).

[6] = test system: human G-CSF; assay: Example 32B human G-CSF modified RNA lipoplex IM/SC/IV, serum human G-CSF ELISA; assay type: in vivo, C57/BL6 mice; details: I.M., 100 μg, lipoplexed with 30% RNAIMAX, serum 6 hours
Procedure: 6 hours after administration of a formulation, serum was collected from each mouse to measure the amount of human G-CSF protein in the mouse serum by human G-CSF ELISA and the results are shown in Table 54.

B1: G-CSF: human G-CSF mRNA SEQ ID NO: 6, polyA ~160 nt, Cap1, fully modified with 5-methylcytosine and pseudouridine (nucleic acid, listed as Homo sapiens)
chain: GGGAAAUAAGAGAGAAAAGAAGAGUAAGAAGAAAUAUAAGAGCCACCAUGGCCGGUCCCGCGACCCAAAGCCCCAUGAAACUUAUGGCCCUGCAGUUGCUGCUUUGGCACUCGGCCCUCUGGACAGUCCAAGAAGCGACUCCUCUCGGACCUGCCUCAUCGUUGCCGCAGUCAUUCCUUUUGAAGUGUCUGGAGCAGGUGCGAAAGAUUCAGGGCGAUGGAGCCGCACUCCAAGAGAAGCUCUGCGCGACAUACAAACUUUGCCAUCCCGAGGAGCUCGUACUGCUCGGGCACAGCUUGGGGAUUCCCUGGGCUCCUCUCUCGUCCUGUCCGUCGCAGGCUUUGCAGUUGGCAGGGUGCCUUUCCCAGCUCCACUCCGGUUUGUUCUUGUAUCAGGGACUGCUGCAAGCCCUUGAGGGAAUCUCGCCAGAAUUGGGCCCGACGCUGGACACGUUGCAGCUCGACGUGGCGGAUUUCGCAACAACCAUCUGGCAGCAGAUGGAGGAACUGGGGAUGGCACCCGCGCUGCAGCCCACGCAGGGGGCAAUGCCGGCCUUUGCGUCCGCGUUUCAGCGCAGGGCGGGUGGAGUCCUCGUAGCGAGCCACCUUCAAUCAUUUUUGGAAGUCUCGUACCGGGUGCUGAGACAUCUUGCGCAGCCGUGAAGCGCUGCCUUCUGCGGGGCUUGCCUUCUGGCCAUGCCCUUCUUCUCUCCCUUGCACCUGUACCUCUUGGUCUUUGAAUAAAGCCUGAGUAGGAAG
modifications: polyA ~160, Cap1, 5mC/pseudouridine modified
G-CSF Serum Concentration ([1]; IM, 2 hours): 1620.4 pg/mL
G-CSF Serum Concentration ([1]; IM, 8 hours): 7910.4 pg/mL
G-CSF Serum Concentration ([1]; IM, 24 hours): 893.3 pg/mL
G-CSF Serum Concentration ([1]; IM, 48 hours): OSC
G-CSF Serum Concentration ([1]; IM, 5 days): OSC
G-CSF detectable to ([1]; IV): 7 days
G-CSF Serum Concentration ([1]; IV, 2 hours): 31,331.9 pg/ml
G-CSF Serum Concentration ([1]; IV, 8 hours): 70,532.4 pg/ml
G-CSF Serum Concentration ([1]; IV, 24 hours): 5,738.6 pg/ml
G-CSF Serum Concentration ([1]; IV, 48 hours): 233.8 pg/mL
G-CSF Serum Concentration ([1]; IV, 5 days): 60.4 pg/mL
G-CSF Serum Concentration ([1]; SC, 2 hours): 80.3 pg/mL
G-CSF Serum Concentration ([1]; SC, 8 hours): 164.2 pg/mL
G-CSF Serum Concentration ([1]; SC, 24 hours): OSC
G-CSF Serum Concentration ([1]; SC, 48 hours): OSC
G-CSF Serum Concentration ([1]; SC, 5 days): OSC
G-CSF detectable to at least ([1]; subcutaneous and intramuscular): at least 8 hours
ALT ([2]; Female NHP, 0.005 mg/kg, 2 days): 32 U/L
ALT ([2]; Female NHP, 0.005 mg/kg, 4 days): 58 U/L
ALT ([2]; Female NHP, 0.005 mg/kg, 7 days): 55 U/L
ALT ([2]; Female NHP, 0.005 mg/kg, 14 days): 46 U/L
ALT ([2]; Female NHP, 0.005 mg/kg, Pre-dose): 51 U/L
ALT ([2]; Female NHP, 0.05 mg/kg, 2 days): 39 U/L
ALT ([2]; Female NHP, 0.05 mg/kg, 4 days): 56 U/L
ALT ([2]; Female NHP, 0.05 mg/kg, 7 days): 73 U/L
ALT ([2]; Female NHP, 0.05 mg/kg, 14 days): 31 U/L
ALT ([2]; Female NHP, 0.05 mg/kg, Pre-dose): 53 U/L
ALT ([2]; Female NHP, 0.5 mg/kg, 2 days): 209 U/L
ALT ([2]; Female NHP, 0.5 mg/kg, 4 days): 98 U/L
ALT ([2]; Female NHP, 0.5 mg/kg, 7 days): 149 U/L
ALT ([2]; Female NHP, 0.5 mg/kg, 14 days): 145 U/L
ALT ([2]; Female NHP, 0.5 mg/kg, Pre-dose): 216 U/L
ALT ([2]; Male NHP, 0.005 mg/kg, 2 days): 39 U/L
ALT ([2]; Male NHP, 0.005 mg/kg, 4 days): 48 U/L
ALT ([2]; Male NHP, 0.005 mg/kg, 7 days): 29 U/L
ALT ([2]; Male NHP, 0.005 mg/kg, 14 days): 44 U/L
ALT ([2]; Male NHP, 0.005 mg/kg, Pre-dose): 43 U/L
ALT ([2]; Male NHP, 0.05 mg/kg, 2 days): 82 U/L
ALT ([2]; Male NHP, 0.05 mg/kg, 4 days): 88 U/L
ALT ([2]; Male NHP, 0.05 mg/kg, 7 days): 73 U/L
ALT ([2]; Male NHP, 0.05 mg/kg, 14 days): 50 U/L
ALT ([2]; Male NHP, 0.05 mg/kg, Pre-dose): 58 U/L
ALT ([2]; Male NHP, 0.5 mg/kg, 2 days): 63 U/L
ALT ([2]; Male NHP, 0.5 mg/kg, 4 days): 70 U/L
ALT ([2]; Male NHP, 0.5 mg/kg, 7 days): 41 U/L
ALT ([2]; Male NHP, 0.5 mg/kg, 14 days): 43 U/L
ALT ([2]; Male NHP, 0.5 mg/kg, Pre-dose): 29 U/L
G-CSF Serum Concentration 8-12 hours after administration ([3]; IM, saline): ~20 to 80 pg/mL
G-CSF Serum Concentration 8-12 hours after administration ([3]; IV (Lipoplex)): ~30 pg/mL
G-CSF Serum Concentration 8-12 hours after administration ([3]; SC, saline): ~10 to 40 pg/mL
Reticulocyte count ([4]; Table 39, Female NHP, 0.005 mg/kg, 14/18 days): 0.057 10^12/L
Reticulocyte count ([4]; Table 39, Female NHP, 0.005 mg/kg, 24 hours): 0.07 10^12/L
Reticulocyte count ([4]; Table 39, Female NHP, 0.005 mg/kg, 3 days): 0.054 10^12/L
Reticulocyte count ([4]; Table 39, Female NHP, 0.005 mg/kg, 7 days): 0.066 10^12/L
Reticulocyte count ([4]; Table 39, Female NHP, 0.005 mg/kg, Pre-dose): 0.06 10^12/L
Reticulocyte count ([4]; Table 39, Female NHP, 0.05 mg/kg, 14/18 days): 0.06 10^12/L
Reticulocyte count ([4]; Table 39, Female NHP, 0.05 mg/kg, 24 hours): 0.046 10^12/L
Reticulocyte count ([4]; Table 39, Female NHP, 0.05 mg/kg, 3 days): 0.061 10^12/L
Reticulocyte count ([4]; Table 39, Female NHP, 0.05 mg/kg, 7 days): 0.094 10^12/L
Reticulocyte count ([4]; Table 39, Female NHP, 0.05 mg/kg, Pre-dose): 0.049 10^12/L
Reticulocyte count ([4]; Table 39, Female NHP, 0.5 mg/kg, 14/18 days): 0.071 10^12/L
Reticulocyte count ([4]; Table 39, Female NHP, 0.5 mg/kg, 24 hours): 0.046 10^12/L
Reticulocyte count ([4]; Table 39, Female NHP, 0.5 mg/kg, 3 days): 0.017 10^12/L
Reticulocyte count ([4]; Table 39, Female NHP, 0.5 mg/kg, 7 days): 0.021 10^12/L
Reticulocyte count ([4]; Table 39, Female NHP, 0.5 mg/kg, Pre-dose): 0.055 10^12/L
Reticulocyte count ([4]; Table 39, Male NHP, 0.005 mg/kg, 14/18 days): 0.069 10^12/L
Reticulocyte count ([4]; Table 39, Male NHP, 0.005 mg/kg, 24 hours): 0.037 10^12/L
Reticulocyte count ([4]; Table 39, Male NHP, 0.005 mg/kg, 3 days): 0.037 10^12/L
Reticulocyte count ([4]; Table 39, Male NHP, 0.005 mg/kg, 7 days): 0.046 10^12/L
Reticulocyte count ([4]; Table 39, Male NHP, 0.005 mg/kg, Pre-dose): 0.037 10^12/L
Reticulocyte count ([4]; Table 39, Male NHP, 0.05 mg/kg, 14/18 days): 0.107 10^12/L
Reticulocyte count ([4]; Table 39, Male NHP, 0.05 mg/kg, 24 hours): 0.048 10^12/L
Reticulocyte count ([4]; Table 39, Male NHP, 0.05 mg/kg, 3 days): 0.101 10^12/L
Reticulocyte count ([4]; Table 39, Male NHP, 0.05 mg/kg, 7 days): 0.157 10^12/L
Reticulocyte count ([4]; Table 39, Male NHP, 0.05 mg/kg, Pre-dose): 0.055 10^12/L
Reticulocyte count ([4]; Table 39, Male NHP, 0.5 mg/kg, 14/18 days): 0.029 10^12/L
Reticulocyte count ([4]; Table 39, Male NHP, 0.5 mg/kg, 24 hours): 0.032 10^12/L
Reticulocyte count ([4]; Table 39, Male NHP, 0.5 mg/kg, 3 days): 0.041 10^12/L
Reticulocyte count ([4]; Table 39, Male NHP, 0.5 mg/kg, 7 days): 0.009 10^12/L
Reticulocyte count ([4]; Table 39, Male NHP, 0.5 mg/kg, Pre-dose): 0.067 10^12/L
increase in neutrophil count above control [5]: four to five fold increase
G-CSF [6]: 85.6 pg/mL
